In patent publication US20220315554A1, “COMPOUNDS COMPRISING A […] LIGAND AND USE THEREOF” (priority 2019, published 2022):
Bridge positions count the residues as written; N and C are the ends. * marks the point of attachment. tMeBn(DOTA-AET) = Cys-Cys bridge (thioethers) carrying DOTA-AET; tMeBn(DOTA-PP) = Cys-Cys bridge (thioethers) carrying DOTA-PP; Hexanoyl = CCCCCC(=O)*

T1: D2S (h) (human (printed (h))), P14416
T1 chain: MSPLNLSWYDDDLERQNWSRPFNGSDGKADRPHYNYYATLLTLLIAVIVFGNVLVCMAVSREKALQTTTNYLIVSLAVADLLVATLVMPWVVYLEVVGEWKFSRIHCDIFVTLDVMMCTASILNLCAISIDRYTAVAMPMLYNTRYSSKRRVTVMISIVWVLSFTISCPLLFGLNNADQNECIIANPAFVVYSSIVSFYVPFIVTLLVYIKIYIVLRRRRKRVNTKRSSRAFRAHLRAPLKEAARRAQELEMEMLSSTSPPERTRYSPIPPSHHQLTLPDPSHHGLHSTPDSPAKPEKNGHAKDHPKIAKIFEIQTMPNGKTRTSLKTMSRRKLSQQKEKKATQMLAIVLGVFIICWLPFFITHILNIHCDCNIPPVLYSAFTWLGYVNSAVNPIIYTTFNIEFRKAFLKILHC

T2: ETA (h) (human (printed (h))), P25101
T2 chain: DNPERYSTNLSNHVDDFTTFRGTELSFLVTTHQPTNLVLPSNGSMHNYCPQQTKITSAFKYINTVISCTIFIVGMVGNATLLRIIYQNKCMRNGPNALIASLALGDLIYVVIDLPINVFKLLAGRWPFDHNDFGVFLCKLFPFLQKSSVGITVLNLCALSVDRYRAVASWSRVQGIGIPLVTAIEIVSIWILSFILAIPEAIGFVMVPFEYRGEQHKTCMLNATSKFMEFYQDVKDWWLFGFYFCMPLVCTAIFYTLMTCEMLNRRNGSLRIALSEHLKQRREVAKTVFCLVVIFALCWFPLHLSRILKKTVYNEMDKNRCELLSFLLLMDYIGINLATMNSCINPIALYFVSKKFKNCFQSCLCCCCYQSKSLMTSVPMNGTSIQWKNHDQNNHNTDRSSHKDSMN

T3: M2 (h) (human (printed (h))), P08172
T3 chain: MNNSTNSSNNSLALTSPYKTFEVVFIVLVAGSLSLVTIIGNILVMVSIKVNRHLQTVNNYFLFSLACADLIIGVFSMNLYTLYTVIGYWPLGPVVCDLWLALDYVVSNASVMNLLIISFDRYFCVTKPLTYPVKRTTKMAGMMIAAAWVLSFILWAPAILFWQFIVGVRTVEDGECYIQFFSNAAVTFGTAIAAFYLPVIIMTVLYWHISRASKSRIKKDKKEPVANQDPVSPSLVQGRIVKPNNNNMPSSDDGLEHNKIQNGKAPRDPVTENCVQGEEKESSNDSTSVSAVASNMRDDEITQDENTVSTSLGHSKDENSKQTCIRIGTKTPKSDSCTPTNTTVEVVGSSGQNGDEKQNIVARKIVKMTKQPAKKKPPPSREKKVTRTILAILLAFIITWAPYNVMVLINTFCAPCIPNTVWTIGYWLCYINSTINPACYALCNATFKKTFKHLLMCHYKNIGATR

T4: alpha 1A (h) (human (printed (h))), P35348
T4 chain: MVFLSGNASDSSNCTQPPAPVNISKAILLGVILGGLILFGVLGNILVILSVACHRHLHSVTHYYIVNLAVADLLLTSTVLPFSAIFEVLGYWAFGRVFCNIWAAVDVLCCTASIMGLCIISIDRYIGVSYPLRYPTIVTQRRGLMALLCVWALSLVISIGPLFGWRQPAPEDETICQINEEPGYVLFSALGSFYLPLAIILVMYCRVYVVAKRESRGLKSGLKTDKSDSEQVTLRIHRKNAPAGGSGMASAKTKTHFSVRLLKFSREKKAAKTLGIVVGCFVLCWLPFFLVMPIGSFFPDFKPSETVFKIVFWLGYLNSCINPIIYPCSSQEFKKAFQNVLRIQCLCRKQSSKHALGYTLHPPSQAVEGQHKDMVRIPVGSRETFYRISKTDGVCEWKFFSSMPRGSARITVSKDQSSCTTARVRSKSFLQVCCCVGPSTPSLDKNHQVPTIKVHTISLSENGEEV

T5: dopamine transporter (h) (human (printed (h))), Q01959
T5 chain: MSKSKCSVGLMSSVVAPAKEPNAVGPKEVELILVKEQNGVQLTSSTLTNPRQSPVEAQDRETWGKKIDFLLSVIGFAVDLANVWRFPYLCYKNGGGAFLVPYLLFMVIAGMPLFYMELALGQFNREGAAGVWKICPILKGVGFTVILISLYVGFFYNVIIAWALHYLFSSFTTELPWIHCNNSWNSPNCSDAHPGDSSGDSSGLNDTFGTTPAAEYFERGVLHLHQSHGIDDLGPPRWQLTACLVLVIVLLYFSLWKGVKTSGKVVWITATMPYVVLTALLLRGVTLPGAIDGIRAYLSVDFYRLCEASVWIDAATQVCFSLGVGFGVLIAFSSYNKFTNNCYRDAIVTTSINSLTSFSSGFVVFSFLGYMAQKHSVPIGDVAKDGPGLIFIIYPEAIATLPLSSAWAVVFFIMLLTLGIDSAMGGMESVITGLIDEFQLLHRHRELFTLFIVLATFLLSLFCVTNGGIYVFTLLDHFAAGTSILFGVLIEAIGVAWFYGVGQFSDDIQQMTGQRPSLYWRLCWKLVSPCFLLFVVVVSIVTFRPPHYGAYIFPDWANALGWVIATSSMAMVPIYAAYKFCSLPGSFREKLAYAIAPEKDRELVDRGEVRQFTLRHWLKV


Key:
Experiment in all cases: radioligand displacement, 10 uM compound
Conditions in all cases: remark: other sources report otherwise
[1] = target: T1, D2S (h) (human (printed (h))), P14416
[2] = target: T2, ETA (h) (human (printed (h))), P25101
[3] = target: T3, M2 (h) (human (printed (h))), P08172
[4] = target: T4, alpha 1A (h) (human (printed (h))), …
[5] = target: beta 1 (h) (human (printed (h))), P08588
[6] = target: T5, dopamine transporter (h) (human …)
[7] = target: mu (MOP) (h) (human), P35372
mu (MOP) (h) (human), P35372, sequence (P35372 whole entry): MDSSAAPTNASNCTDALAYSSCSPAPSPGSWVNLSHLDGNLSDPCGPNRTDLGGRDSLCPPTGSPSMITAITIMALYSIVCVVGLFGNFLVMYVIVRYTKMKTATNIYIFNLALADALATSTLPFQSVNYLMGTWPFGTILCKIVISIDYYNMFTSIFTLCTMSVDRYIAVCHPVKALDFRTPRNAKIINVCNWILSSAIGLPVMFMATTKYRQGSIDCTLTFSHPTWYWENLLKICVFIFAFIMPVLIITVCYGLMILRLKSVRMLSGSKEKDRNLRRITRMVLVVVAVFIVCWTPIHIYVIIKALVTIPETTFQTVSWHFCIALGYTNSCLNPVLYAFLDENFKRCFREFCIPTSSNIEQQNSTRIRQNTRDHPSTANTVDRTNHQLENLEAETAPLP

Row | % Inhibition of Specific Binding [1] [%] | % Inhibition of Specific Binding [2] [%] | % Inhibition of Specific Binding [3] [%] | % Inhibition of Specific Binding [4] [%] | % Inhibition of Specific Binding [5] [%] | % Inhibition of Specific Binding [6] [%] | % Inhibition of Specific Binding [7] [%] | Binder
1 | 15 | -18 | -4 | 2 | 4 | 12 | 2 | Hexanoyl-CPPTQFCD-NH2 (linker 1-7 via tMeBn(DOTA-PP)) [Hex-[Cys(tMeBn(DOTA-PP))-Pro-Pro-Thr-Gln-Phe-Cys]-Asp-NH2 (3BP-3407)]
2 | -7 | 6 | 7 | -12 | -13 | 7 | -10 | Hexanoyl-CPPTQFC-OH (linker 1-7 via tMeBn(DOTA-AET)) [Hex-[Cys(tMeBn(DOTA-AET))-Pro-Pro-Thr-Gln-Phe-Cys]-OH (3BP-3554)]
